Experiment: yeast display, Sf9 membrane polyspecificity reagent, FACS + sequencing; frameworks hold sequencing errors
In short: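 Synthetic nanobody libraries on Saccharomyces cerevisiae BJ5465 were galactose-induced for 36–48 hours, stained 1 hour at 4 °C with 10% biotinylated, detergent-solubilized Sf9 membrane reagent and enriched on streptavidin microbeads. FACS then separated cells into low and high (top ~1%) gates by anti-HA (expression) and streptavidin (reagent binding) fluorescence. Genes were colony-PCR amplified, MiSeq 2 × 250 sequenced and CDR-length filtered. A clone's polyreactivity label is that of its gate of origin.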

Sequence | polyreactivity (PSR sort gate)
QVQLEESGGGLVQAGGSHRLSCAASGQIFRHYAMGWYRQAPGKEREFVAAITGSGGNTYYADSLKGRFTISRDNAKNTVYLQMNSLKPEDTAVYYCAVRAYPSYPRGVYAYYYWGQGTQVTVSS | high polyreactivity
QVQLEESGGGLVQAGGSHRLSCPASGRIFRANAMGWYRQAPGKERELLAAITRSGGSTYYADSVKGRFTISRDNAKNTVYLHMISLKPEDTAVYYWNARTRFDDGYDYWGQGTQVTVSS | high polyreactivity
QVQLEESGGGLVQAGGSLLLSCAASGLIFYHNAMGWYIQAPGKERELVAAITASGGSTYYADSVKGRFTISRDNANNTVYLQIISLKTEDTAVYYCAADGPLDSDLDYWRQGTQVTVSS | low polyreactivity
QVQLEESGGGLVQAGGSLPLICAASGRIFATYAMGWYRQAPGKARELVAAISGRGSSTYYADSVKVRFTISRDNAKNTVYLQMNSLKPEDTAVSYCAAVVRHSFGYDSWGQCTQVTVSS | high polyreactivity
QVQLEESGGGLVQAGGSLRFSCAASGSIMTRNAMGWYRQPTGKEMELVAAITGSGGRTYYADSVKGRFSISRDNAKKTFFLQMTSLIPEDTAVYYCATRYGREDYWGQGTQVNVSS | high polyreactivity
QVQLEESGGGLVQAGGSLRISCAASGRTIGPYAMGWYRQARGKERELVAAISGGGSTNYADSVKGRFTISRDNAKNSDYLQMNSLKPEDTAVYYCNTEYPISGEEEYWGQGTHVTVSS | low polyreactivity
QVQLEESGGGLVQAGGSLRISCAASGRTLRSYAMGWYRQAPGKERELVAAISWNGGDTYADSVKGRFTISRDNAKNTVYLQMNSLKPEDTAVYYCAASRWFSRYWYGIDKYNYWGQGTQVTVSS | high polyreactivity
QVQLEESGGGLVQAGGSLRISCAASGSTFWRYTMGWYRQEPGKERELVAAISWSGDGTYYADSVKGRFTISRDNAKNTVYLQMNSLKPEDTAVYYCAAEVYYANGYDYDYWGQGTQVTVSS | low polyreactivity
QVQLEESGGGLVQAGGSLRISCAAYGRTLRQYALGWYRQAPGKERELVAAISRGGSTTYADSVKGRFTISRDNAKNTVYLQMNSLKPEDTAVYYCAAVSSKGNRHEYDYWGQGTQVTVSS | low polyreactivity
QVQLEESGGGLVQAGGSLRLICAASGSIFYQYPMGWYRQAPGKERELVAGITWSGGSTYYADSVKGRFTISRDNAKNTVYLQMNSLKPEDTAVYYCAAQYFCYVYSYDYWGQGTQVTVSS | high polyreactivity
QVQLEESGGGLVQAGGSLRLSCAASALTIEYNAKGSYRQAPAKERELVATISWSDSTRYADSVKGRLTISRDNAKSTVYLQMNSLKPEYTAVYDSNADVYWAWWEFDYWGQGTQVTVSS | low polyreactivity
QVQLEESGGGLVQAGGSLRLSCAASGFIFSWYVMGWYRQAPGKERELVAAISQSGGDTYYADSVKGRFTISRDNAKNTVYLQMNSLKPEDTAVYYCAVGRVGRFYYWGQGTQVTVSS | high polyreactivity
QVQLEESGGGLVQAGGSLRLSCAASGFTFGVYPMGWYRQATGKEREFVADITYSGGSTYYADSVKGRFTISRDNAKNTVYLHMNSLKPEDTAVYYCAAGYVYTWYGEYVVGYDYWGQGTQVTVSS | high polyreactivity
QVQLEESGGGLVQAGGSLRLSCAASGFTFHPNAMGWYRQAPGKERELVAAIRYSTGRTYYADSVKGRFTISRDNAKNTVYLQMNSLKPEDTAVYYCAREALQYPGLKYNYWGQGTQVTVSS | low polyreactivity
QVQLEESGGGLVQAGGSLRLSCAASGFTFIRYAMGWYRQAPGTERELVAAIRGTGTSTYYADSVKGRFTISRDNAKNTVYLQMNSLKPEDTAVYYCNKVAGRSPYTRYDYWGQGTQVTVSS | low polyreactivity
QVQLEESGGGLVQAGGSLRLSCAASGFTFRKNAMGWYRQAPGKERELVAAISSGGGRTYYADSVKGRFTISRDNANNTVYLQMNSLKPEDTAVYYCAVSIGRYPYRYGYWGQGTQVTVSS | high polyreactivity
QVQLEESGGGLVQAGGSLRLSCAASGFTFTDYAMGWYRQAPGKERELVAVITYDSTYYADSVKGRFTISRDNAKNTVYLQMNSLKPEDTAVYYCAADSYDWGDFDYWGQGTQVTVSS | low polyreactivity
QVQLEESGGGLVQAGGSLRLSCAASGFTFVPYAMGWYRPAPGKETEFVAALFSDGSTYYADSVKGRFTISRDNAKNTVYLQMNSLKPEDTAVYYCAAAGESSRTGHFDYWGQGTQVTVSS | low polyreactivity
QVQLEESGGGLVQAGGSLRLSCAASGFTFVSYAMGWYRQAPGKERELVAAISRRGGRTYYADSVKGRFTISRDNAKNTVYLQMNSLKPEDTAVYYCNKDYYGSPSSYYWYDYWGQGTQVTVSS | high polyreactivity
QVQLEESGGGLVQAGGSLRLSCAASGFTFYDYAMVWYRQAPGKERELVAAIRRSGTRTYYADSVKGRFTISRDNAKNTVYLQINSLKPEDTAVYYCAARYSYTHQRDYWGQGTLVTVSS | high polyreactivity
QVQLEESGGGLVQAGGSLRLSCAASGFTFYSYVMGWYRPAPGKVTELVAAIYWSGGSTYYADSVKGRFTISRDNAKYTVYLQMNSLKPEDTAVYYCAARRYASRNGYLYDYWGQGTQVTVSS | high polyreactivity

Sequence | polyreactivity (PSR sort gate)
QVQLEESGGGLVQAGGSLRLSCAASGGIFYEYAMGRYRQAPGKERELVATISFNVASTYADSVKGRFTISRDNAKNTVFLQMNSMKPEDTAVYYCIADTYWYRDSRYDYWGQGTQVTVSS | low polyreactivity
QVQLEESGGGLVQAGGSLRLSCAASGIIFILYTMGWYRQAPGKERELVATISSGGGSTFYADSVKGRFTISRDNAKNTVYLQMNSLKPEDTAVYYCAAEQLYYGERYYIWGYYYWGQGTQVTVSS | low polyreactivity
QVQLEESGGGLVQAGGSLRLSCAASGIIFRFYTMGWYRQAPGKERELVAVITWSGGSTYYADSVKGRFSISRDNAMNTVYLQMNSLKPEATAVYYCNAEYTYGNSVYKYDYWGQGTQVTVSS | low polyreactivity
QVQLEESGGGLVQAGGSLRLSCAASGIIIATYAMGWYRQAPGKERELVAVISNDGSTHYADSVKGRFTISRDNAKNTVYLQMNSLKPEDTAVYYCNAEEIDEASYAYPPLEYDYWGQGTQVTVSS | low polyreactivity
QVQLEESGGGLVQAGGSLRLSCAASGINFSVYGMGGYRQATGKERELVASITKSGGTTYYADSVKGRFTISRDNAKNTVYLQMNSLKPEDTAVYYCAAAWSDKRVLSVYYAYYWGQGTQVTVSS | high polyreactivity
QVQLEESGGGLVQAGGSLRLSCAASGITFFWNAMGWYRQAPGTERELVAVISSGGSTKYSDSVKGRFTISRDNAKNTVYLQMNSLKPEDTAVYYCAAAVRVGTRQYGYWGQGTQVTVSS | high polyreactivity
QVQLEESGGGLVQAGGSLRLSCAASGITFRQYAMGWYRQAPGKERELVATISSGDDTYYADSVKGRFTISRDNAKNTVYLQMNSLKPEDTAVYYCAARYWTSIVRYRGDYWGQGTQVTVSS | high polyreactivity
QVQLEESGGGLVQAGGSLRLSCAASGITFSGNAMGWYRQAPGKERELVATISQSGGRTYYADSVKGRFTISRDNAKNTVYLQMNSLKPEDTAVYYCARRRLRYTDRGYYYWGQGTQVTVSS | high polyreactivity
QVQLEESGGGLVQAGGSLRLSCAASGLTFRIYAMGWYRQAPGKERELVAAISYRGGSTYYADSVKGRFTISRDNAKNTVSLQMNSLKPEDTAVYYCAAGFVLNGIRYDFWGQGTQLTVSS | high polyreactivity
QVQLEESGGGLVQAGGSLRLSCAASGLTISWNAMGWYRQAPGKERELVAAISSRGGSTYYADSVKARFKISRDNAKNTVYLQMNSLKPEETAVYYCAAEGYTYYPVYSTRMYYWGQGTQVTVLS | low polyreactivity
QVQLEESGGGLVQAGGSLRLSCAASGNILWKNAMGWYRQAPGKERELVAAITRSGGSTYYADSVKGRFTISRDNAKNTVYLQMNSLKPEDTAVYYCATRNLGYRPYRYDYWGQGTQVTVSS | high polyreactivity
QVQLEESGGGLVQAGGSLRLSCAASGRIFGGYAMGWYRQAPGKERELVAAITSSGSTNYADSVKGRFTISRDNAKNTVYLQMNSLKPEDTAVYYCATDFKTVYYWWGMDYWGQGTQVTVSS | low polyreactivity
QVQLEESGGGLVQAGGSLRLSCAASGRIFYGNSMGWYRQAPGKERELVAAISKRGGSTYYADSVKGRFTISRDNAKNTVYLQMNSLKPEDTAVYYCAASYPTRAWEYDYWGQGTQVTVAS | high polyreactivity
QVQLEESGGGLVQAGGSLRLSCAASGRIGAYAMGWYRQAPGKERELVAGITSNGASTYYADSVKGRFTISRDNAKNTVYLQMNSLKPEDTAVYYCAARYRFQRGGYYYWGQGTQVTVSS | high polyreactivity
QVQLEESGGGLVQAGGSLRLSCAASGRIRYYAMGWYRQAPGKERELVAAISSTGGSTYYADSVKGRFTISRDNAKNTVYFQMNSLKPEDTAVYYCNVAWIWGKYEYWGQGTQVTVSS | high polyreactivity
QVQLEESGGGLVQAGGSLRLSCAASGRISESNDRGWYRQAPGKERQLVAAISSSGGSTYYADSVKGRFTISRDTAKNTVYLQLNSLKPEDTAVYYCAREYIFSVYDYSTSYYYWGQGTQVTVSS | low polyreactivity
QVQLEESGGGLVQAGGSLRLSCAASGRNFSVYAMGWYRPAPGKERELVARIRSGGSTYYADSVKGRFTISRDNAKNTVYLQMNSLKPEDTAVYYCAADGFASRWYAYYYWGQGTQVTVSS | high polyreactivity
QVQLEESGGGLVQAGGSLRLSCAASGRTFPLYVMGWYRQAPGKEREWVAAISARGGSTYYADSVKGRFTISRDNAKNTVYLQMNSLKPEDTAVYYCATLVTNGRYDSWGQGTQVTVSS | high polyreactivity
QVQLEESGGGLVQAGGSLRLSCAASGRTFQYYTMGWYRQAPGKEREFVAAIRDSGGSTYYADSVKGRFTISRDNAKNTVYLQMNSLKPEDTAVYYCNKVPNGPSNYDYWGQGTQVTVSS | high polyreactivity
QVQLEESGGGLVQAGGSLRLSCAASGRTFRYNAMGWYRQAPGKERELVVAINWSGGSTYYADSVKGRFTISRDNAKNTVYLQMNSLKPEDTAVYYCAAEPTGWVWYAGYGYYWGQGTRVTVSS | high polyreactivity

— the nanobody polyreactivity screen of Harvey et al. (2022)
